In patent US20060153851A1, “CLASP proteins” (ARBOR VITA CORPORATION, published 2006):

Key:
GST-DLG1 fusion protein = GST-DLG1 fusion protein (Homo sapiens (Human), UniProt Q12959); test: varying concentrations of biotinylated peptide on plate-bound GST fusion, streptavidin-HRP, fit to a saturation binding curve (FIG. 9B)
Procedure: (§1) 20 μM biotinylated synthetic peptide corresponding to the C-terminal 20 amino acids of CLASP-2 was reacted with the indicated plate bound GST fusion proteins (none=no GST fusion protein coated onto plate). Error bars indicate standard deviation of duplicate measurements. B. Affinity of CLASP 2-PDZ interactions. Varying concentrations of biotinylated CLASP-2 peptide were reacted with plate bound GST alone, GST-DLG1, GST-NeDLG, and GST-PSD95 fusion proteins. The binding to GST alone (<0.1 OD units) was subtracted from the binding to the fusion proteins and the remaining signal was divided by the signal observed upon addition of 30 μM CLASP-2 peptide to each PDZ domain-containing protein (0.4-1.0 OD units) and plotted. […] Data are means of duplicate data points, with standard errors between duplicate data points <10%. C. Inhibition of CLASP-2-PDZ binding. 5 μM biotinylated synthetic peptide corresponding to the C-terminal 20 amino acids of CLASP-2 was reacted with the indicated, plate-bound PDZ domain-containing GST fusion proteins in the presence or absence of 100 μM competitor peptide. CLASP-2 Inhibitor refers to a synthetic peptide composed of the eight C-terminal amino acids of CLASP-2. KV1.3 Inhibitor refers to a synthetic peptide composed of the 19 C-terminal amino acids of KV1.3, a lymphocyte potassium channel. The amino acid sequence of the KV1.3 inhibitor is […]. D. Inhibition of KV1.3-PDZ binding. 5 μM biotinylated synthetic peptide corresponding to the C-terminal 19 amino acids of KV1.3 was reacted with the indicated, plate-bound PDZ-domain containing GST fusion proteins in the presence or absence of 100 μM CLASP-2 Inhibitor (see FIG. 9C legend).
(§2) The binding of a biotinylated carboxyl-terminal peptide to a GST-PDZ fusion protein is measured as follows: [0470] (1) GST fusion protein containing one or more PDZ domain(s) is coated onto a protein-binding surface. […]

GST-NeDLG fusion protein [1] = biological target: T1, GST-NeDLG fusion protein (human, UniProt Q92796); test: as above
T1 sequence: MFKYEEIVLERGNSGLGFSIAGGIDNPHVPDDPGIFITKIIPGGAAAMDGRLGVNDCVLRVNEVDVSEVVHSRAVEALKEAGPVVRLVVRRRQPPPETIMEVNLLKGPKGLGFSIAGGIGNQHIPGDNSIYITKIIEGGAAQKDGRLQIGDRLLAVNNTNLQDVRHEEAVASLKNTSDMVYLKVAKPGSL
Procedure: as §1, §2

GST-PSD95 fusion protein = GST-PSD95 fusion protein (Homo sapiens (Human), UniProt P78352); test: as above
Procedure: as §1, §2

GST-NeDLG fusion protein [2] = biological target: T1, GST-NeDLG fusion protein; test: biotinylated peptide titration on plate-bound GST fusion (FIG. 9B)
Procedure: 20 μM biotinylated synthetic peptide corresponding to the C-terminal 20 amino acids of CLASP-2 was reacted with the indicated plate bound GST fusion proteins (none=no GST fusion protein coated onto plate). Error bars indicate standard deviation of duplicate measurements. B. Affinity of CLASP 2-PDZ interactions. Varying concentrations of biotinylated CLASP-2 peptide were reacted with plate bound GST alone, GST-DLG1, GST-NeDLG, and GST-PSD95 fusion proteins. The binding to GST alone (<0.1 OD units) was subtracted from the binding to the fusion proteins and the remaining signal was divided by the signal observed upon addition of 30 μM CLASP-2 peptide to each PDZ domain-containing protein (0.4-1.0 OD units) and plotted. […] Data are means of duplicate data points, with standard errors between duplicate data points <10%. C. Inhibition of CLASP-2-PDZ binding. 5 μM biotinylated synthetic peptide corresponding to the C-terminal 20 amino acids of CLASP-2 was reacted with the indicated, plate-bound PDZ domain-containing GST fusion proteins in the presence or absence of 100 μM competitor peptide. CLASP-2 Inhibitor refers to a synthetic peptide composed of the eight C-terminal amino acids of CLASP-2. […]
The binding of a biotinylated carboxyl-terminal peptide to a GST-PDZ fusion protein is measured as follows: [0470] […]

Kd (GST-DLG1 fusion protein): 21 µM | Kd (GST-NeDLG fusion protein [1]): 7.5 µM | Kd (GST-PSD95 fusion protein): 45 µM | Ka (GST-NeDLG fusion protein [2]): ≥ 10000 M⁻¹
B1: biotinylated synthetic peptide corresponding to the C-terminal 20 amino acids of CLASP-2 (peptide)
peptide: VLHHHQNPEFYDEIKIELPTQLHEKHHLLLTFFHVSCDNSSKGSTKKRDVVETQVGYSWLPLLKDGRVVTSEQHIPVSANLPSGYLGYQELGMGRHYGPEIKWVDGGKPLLKISTHLVSTVYTQDQHLHNFFQYCQKTESGAQALGNELVKYLKSLHAMEGHVMIAFLPTILNQLFRVLTRATQEEVAVNVTRVIIHVVAQCHEEGLESHLRSYVKYAYKAEPYVASEYKTVHEELTKSMTTILKPSADFLTSNKLLRYSWFFFDVLIKSMAQHLIENSKVKLLRNQRFPASYHHAAETVVNMLMPHITQKFGDNPEASKNANHSLAVFIKRCFTFMDRGFVFKQINNYISCFAPGDPKTLFEYKFEFLRVVCNHEHYIPLNLPMPFGKGRIQRYQDLQLDYSLTDEFCRNHFLVGLLLREVGTALQEFREVRLIAISVLKNLLIKHSFDDRYASRSHQARIATLYLPLFGLLIENVQRINVRDVSPFPVNAGMTVKDESLALPAVNPLVTPQKGSTLDNSLHKDLLGAISGIASPYTTSTPNINSVRNADSRGSLISTDSGNSLPERNSEKSNSLDKHQQSSTLGNSVVRCDKLDQSEIKSLLMCFLYILKSMSDDALFTYWNKASTSELMDFFTISEVCLHQFQYMGKRYIARNQEGLGPIVHDRKSQTLPVSRNRTGMMHARLQQLGSLDNSLTFNHSYGHSDADVLHQSLLEANIATEVCLTALDTLSLFTLAFKNQLLADHGHNPLMKKVFDVYLCFLQKHQSETALKNVFTALRSLIYKFPSTFYEGRADMCAALCYEILKCCNSKLSSIRTEASQLLYFLMRNNFDYTGKKSFVRTHLQVIISVSQLIADVVGIGETRFQQSLSIINNCANSDRLIKHTSFSSDVKDLTKRIRTVLMATAQMKEHENDPEMLVDLQYSLAKSYASTPELRKTWLDSMARIHVKNGDLSEAAMCYVHVTALVAEYLTRKGVFRQGCTAFRVITPNIDEEASMMEDVGMQDVHFNEDVLMELLEQCADGLWKAERYELIADIYKLIIPIYEKRRDFFEDEDGKEYIYKEPKLTPLSEISQRLLKLYSDKFGSENVKMIQDSGKVNPKDLDSKYAYIQVTHVIPFFDEKELQERKTEFERSHNIRRFMFEMPFTQTGKRQGGVEEQCKRRTILTAIHCFPYVKKRIPVMYQHHTDLNPIEVAIDEMSKKVAELRQLCSSAEVDMIKLQLKLQGSVSVQVNAGPLAYARAFLDDTNTKRYPDNKVKLLKEVFRQFVEACGQALAVNERLIKEDQLEYQEEMKANYREMAKELSEIMHEQICPLEEKTSVLPNSLHIFNAISGTPTSTMVHGMTSSSSVV
modifications: biotin at the amino-terminus
